Laboratory results: patent US20250312499A1, “KISSPEPTIN RECEPTOR (KISS1R) TARGETED THERAPEUTICS AND USES THEREOF” (priority 2024, published 2025)
Numbered stars: 1 amine (or outer) side, 2 acyl side, 3 side chain; on linkers, the order of the positions; unused ones are H or OH. Square brackets hold non-standard residues; d marks the D form. * marks the point of attachment. X2 = 4‑amino‑1‑((3-fluoro-4-methylbenzyl)glycyl)piperidine‑4‑carboxylic acid, Cc1ccc(CN(CC(=O)N2CCC(N[*:1])(C(=O)[*:2])CC2)[*:3])cc1F; DOTA = O=C(O)CN1CCN(CC(=O)O)CCN(CC(=O)*)CCN(CC(=O)O)CC1; Api(1-amidino) = N=C(N)N1CCC(N)(C(=O)O)CC1; Phe(4-CN) = N#Cc1ccc(C[C@H](N)C(=O)O)cc1; HO(CH2CH2O)2CH2CH2CO = O=C(CCOCCOCCO)*; 2Nal = N[C@@H](Cc1ccc2ccccc2c1)C(=O)O; d2Nal = N[C@H](Cc1ccc2ccccc2c1)C(=O)O; 4Pal = N[C@@H](Cc1ccncc1)C(=O)O; d4Pal = N[C@H](Cc1ccncc1)C(=O)O; 4Amb = NCc1ccc(C(=O)O)cc1; APM = not defined here; Ahx = NCCCCCC(=O)O; azaGly = NNC(=O)O

B1: Compound 238 (peptide)
peptide: {DOTA-Ahx}-ENTF[azaGly]L[X2]W-NH2
SMILES: Cc1ccc(CNCC(=O)N2CCC(NC(=O)[C@H](CC(C)C)NC(=O)NNC(=O)[C@H](Cc3ccccc3)NC(=O)[C@@H](NC(=O)[C@H](CC(N)=O)NC(=O)[C@H](CCC(=O)O)NC(=O)CCCCCNC(=O)CN3CCN(CC(=O)O)CCN(CC(=O)O)CCN(CC(=O)O)CC3)[C@@H](C)O)(C(=O)N[C@@H](Cc3c[nH]c4ccccc34)C(N)=O)CC2)cc1F
B2: Compound 240 (peptide)
peptide: {DOTA-4Amb}-NTFGL[X2][Phe(4-CN)]-NH2
modifications: not fully specified
B3: Compound 241 (peptide)
peptide: {DOTA-4Amb}-ENTF[azaGly]L[X2][Phe(4-CN)]-NH2
SMILES: Cc1ccc(CNCC(=O)N2CCC(NC(=O)[C@H](CC(C)C)NC(=O)NNC(=O)[C@H](Cc3ccccc3)NC(=O)[C@@H](NC(=O)[C@H](CC(N)=O)NC(=O)[C@H](CCC(=O)O)NC(=O)c3ccc(CNC(=O)CN4CCN(CC(=O)O)CCN(CC(=O)O)CCN(CC(=O)O)CC4)cc3)[C@@H](C)O)(C(=O)N[C@@H](Cc3ccc(C#N)cc3)C(N)=O)CC2)cc1F
B4: Compound 10 (peptide)
peptide: {DOTA-Ahx}-FGL[X2]W-NH2
SMILES: Cc1ccc(CNCC(=O)N2CCC(NC(=O)[C@H](CC(C)C)NC(=O)CNC(=O)[C@H](Cc3ccccc3)NC(=O)CCCCCNC(=O)CN3CCN(CC(=O)O)CCN(CC(=O)O)CCN(CC(=O)O)CC3)(C(=O)N[C@@H](Cc3c[nH]c4ccccc34)C(N)=O)CC2)cc1F
B5: Compound 242 (peptide)
peptide: {DOTA-4Amb}-[dE]NTF[azaGly]L[X2][Phe(4-CN)]-NH2
SMILES: Cc1ccc(CNCC(=O)N2CCC(NC(=O)[C@H](CC(C)C)NC(=O)NNC(=O)[C@H](Cc3ccccc3)NC(=O)[C@@H](NC(=O)[C@H](CC(N)=O)NC(=O)[C@@H](CCC(=O)O)NC(=O)c3ccc(CNC(=O)CN4CCN(CC(=O)O)CCN(CC(=O)O)CCN(CC(=O)O)CC4)cc3)[C@@H](C)O)(C(=O)N[C@@H](Cc3ccc(C#N)cc3)C(N)=O)CC2)cc1F
B6: Compound 244 (peptide)
peptide: {DOTA-APM}-F[azaGly]L[X2][Phe(4-CN)]-NH2
modifications: reading uncertain
B7: Compound 245 (peptide)
peptide: {DOTA-APM}-F[azaGly]L[X2]F-NH2
modifications: reading uncertain
B8: Compound 247 (peptide)
peptide: {DOTA-APM}-F[azaGly]L[X2]Y-NH2
modifications: reading uncertain
B9: Compound 249 (peptide)
peptide: {DOTA-APM}-NTF[azaGly]L[X2]Y-NH2
modifications: reading uncertain
B10: Compound 250 (peptide)
peptide: {DOTA-APM}-TF[azaGly]L[X2]Y-NH2
modifications: reading uncertain
B11: Compound 11 (peptide)
peptide: {DOTA-Ahx}-FGL[X2]Y-NH2
SMILES: Cc1ccc(CNCC(=O)N2CCC(NC(=O)[C@H](CC(C)C)NC(=O)CNC(=O)[C@H](Cc3ccccc3)NC(=O)CCCCCNC(=O)CN3CCN(CC(=O)O)CCN(CC(=O)O)CCN(CC(=O)O)CC3)(C(=O)N[C@@H](Cc3ccc(O)cc3)C(N)=O)CC2)cc1F
B12: Compound 253 (peptide)
peptide: {HO(CH2CH2O)2CH2CH2CO}-K(DOTA)NTF[azaGly]L[X2][4Pal]-NH2
SMILES: Cc1ccc(CNCC(=O)N2CCC(NC(=O)[C@H](CC(C)C)NC(=O)NNC(=O)[C@H](Cc3ccccc3)NC(=O)[C@@H](NC(=O)[C@H](CC(N)=O)NC(=O)[C@H](CCCCNC(=O)CN3CCN(CC(=O)O)CCN(CC(=O)O)CCN(CC(=O)O)CC3)NC(=O)CCOCCOCCO)[C@@H](C)O)(C(=O)N[C@@H](Cc3ccncc3)C(N)=O)CC2)cc1F
B13: Compound 254 (peptide)
peptide: {HO(CH2CH2O)2CH2CH2CO}-[dK](DOTA)NTF[azaGly]L[X2][4Pal]-NH2
SMILES: Cc1ccc(CNCC(=O)N2CCC(NC(=O)[C@H](CC(C)C)NC(=O)NNC(=O)[C@H](Cc3ccccc3)NC(=O)[C@@H](NC(=O)[C@H](CC(N)=O)NC(=O)[C@@H](CCCCNC(=O)CN3CCN(CC(=O)O)CCN(CC(=O)O)CCN(CC(=O)O)CC3)NC(=O)CCOCCOCCO)[C@@H](C)O)(C(=O)N[C@@H](Cc3ccncc3)C(N)=O)CC2)cc1F
B14: Compound 255 (peptide)
peptide: {3‑(2-(2-methoxyethoxy)ethoxy)propanoyl}-K(DOTA)NTF[azaGly]L[X2][4Pal]-NH2
B15: Compound 256 (peptide)
peptide: {1‑hydroxy‑3,6,9,12,15,18,21,24‑octaoxaheptacosan‑27‑oyl}-K(DOTA)NTF[azaGly]L[X2][4Pal]-NH2
B16: Compound 264 (peptide)
peptide: {3‑(2-(2-methoxyethoxy)ethoxy)propanoyl}-K(DOTA)NTF[azaGly]L[Api(1-amidino)]W-NH2
B17: Compound 266 (peptide)
peptide: {DOTA}-[dY][2Nal]NTF[azaGly]L[Api(1-amidino)]W-NH2
SMILES: CC(C)C[C@H](NC(=O)NNC(=O)[C@H](Cc1ccccc1)NC(=O)[C@@H](NC(=O)[C@H](CC(N)=O)NC(=O)[C@H](Cc1ccc2ccccc2c1)NC(=O)[C@@H](Cc1ccc(O)cc1)NC(=O)CN1CCN(CC(=O)O)CCN(CC(=O)O)CCN(CC(=O)O)CC1)[C@@H](C)O)C(=O)NC1(C(=O)N[C@@H](Cc2c[nH]c3ccccc23)C(N)=O)CCN(C(=N)N)CC1
B18: Compound 270 (peptide)
peptide: {DOTA-Ahx-4Amb}-[dY][dW]NTF[azaGly]L[Api(1-amidino)]W-NH2
SMILES: CC(C)C[C@H](NC(=O)NNC(=O)[C@H](Cc1ccccc1)NC(=O)[C@@H](NC(=O)[C@H](CC(N)=O)NC(=O)[C@@H](Cc1c[nH]c2ccccc12)NC(=O)[C@@H](Cc1ccc(O)cc1)NC(=O)c1ccc(CNC(=O)CCCCCNC(=O)CN2CCN(CC(=O)O)CCN(CC(=O)O)CCN(CC(=O)O)CC2)cc1)[C@@H](C)O)C(=O)NC1(C(=O)N[C@@H](Cc2c[nH]c3ccccc23)C(N)=O)CCN(C(=N)N)CC1
B19: Compound 272 (peptide)
peptide: {DOTA-4Amb}-NTF[azaGly]L[Api(1-amidino)][4Pal]-NH2
SMILES: CC(C)C[C@H](NC(=O)NNC(=O)[C@H](Cc1ccccc1)NC(=O)[C@@H](NC(=O)[C@H](CC(N)=O)NC(=O)c1ccc(CNC(=O)CN2CCN(CC(=O)O)CCN(CC(=O)O)CCN(CC(=O)O)CC2)cc1)[C@@H](C)O)C(=O)NC1(C(=O)N[C@@H](Cc2ccncc2)C(N)=O)CCN(C(=N)N)CC1
B20: Compound 1 (peptide)
peptide: {DOTA-Ahx}-[dY][dW]NTF[azaGly]L[X2]W-NH2
SMILES: Cc1ccc(CNCC(=O)N2CCC(NC(=O)[C@H](CC(C)C)NC(=O)NNC(=O)[C@H](Cc3ccccc3)NC(=O)[C@@H](NC(=O)[C@H](CC(N)=O)NC(=O)[C@@H](Cc3c[nH]c4ccccc34)NC(=O)[C@@H](Cc3ccc(O)cc3)NC(=O)CCCCCNC(=O)CN3CCN(CC(=O)O)CCN(CC(=O)O)CCN(CC(=O)O)CC3)[C@@H](C)O)(C(=O)N[C@@H](Cc3c[nH]c4ccccc34)C(N)=O)CC2)cc1F
B21: Compound 290 (peptide)
peptide: {DOTA-Ahx}-[dW]NTF[azaGly]L[X2][4Pal]-NH2
SMILES: Cc1ccc(CNCC(=O)N2CCC(NC(=O)[C@H](CC(C)C)NC(=O)NNC(=O)[C@H](Cc3ccccc3)NC(=O)[C@@H](NC(=O)[C@H](CC(N)=O)NC(=O)[C@@H](Cc3c[nH]c4ccccc34)NC(=O)CCCCCNC(=O)CN3CCN(CC(=O)O)CCN(CC(=O)O)CCN(CC(=O)O)CC3)[C@@H](C)O)(C(=O)N[C@@H](Cc3ccncc3)C(N)=O)CC2)cc1F
B22: Compound 291 (peptide)
peptide: {DOTA-Ahx}-[dY]NTF[azaGly]L[X2][4Pal]-NH2
SMILES: Cc1ccc(CNCC(=O)N2CCC(NC(=O)[C@H](CC(C)C)NC(=O)NNC(=O)[C@H](Cc3ccccc3)NC(=O)[C@@H](NC(=O)[C@H](CC(N)=O)NC(=O)[C@@H](Cc3ccc(O)cc3)NC(=O)CCCCCNC(=O)CN3CCN(CC(=O)O)CCN(CC(=O)O)CCN(CC(=O)O)CC3)[C@@H](C)O)(C(=O)N[C@@H](Cc3ccncc3)C(N)=O)CC2)cc1F
B23: Compound 292 (peptide)
peptide: {DOTA-Ahx}-[d2Nal]NTF[azaGly]L[X2][4Pal]-NH2
SMILES: Cc1ccc(CNCC(=O)N2CCC(NC(=O)[C@H](CC(C)C)NC(=O)NNC(=O)[C@H](Cc3ccccc3)NC(=O)[C@@H](NC(=O)[C@H](CC(N)=O)NC(=O)[C@@H](Cc3ccc4ccccc4c3)NC(=O)CCCCCNC(=O)CN3CCN(CC(=O)O)CCN(CC(=O)O)CCN(CC(=O)O)CC3)[C@@H](C)O)(C(=O)N[C@@H](Cc3ccncc3)C(N)=O)CC2)cc1F
B24: Compound 293 (peptide)
peptide: {DOTA-Ahx}-[dY][dW]NTF[azaGly]L[Apc(OMe)][4Pal]-NH2
B25: Compound 295 (peptide)
peptide: {DOTA-Ahx}-[d4Pal]NTF[azaGly]L[X2][4Pal]-NH2
SMILES: Cc1ccc(CNCC(=O)N2CCC(NC(=O)[C@H](CC(C)C)NC(=O)NNC(=O)[C@H](Cc3ccccc3)NC(=O)[C@@H](NC(=O)[C@H](CC(N)=O)NC(=O)[C@@H](Cc3ccncc3)NC(=O)CCCCCNC(=O)CN3CCN(CC(=O)O)CCN(CC(=O)O)CCN(CC(=O)O)CC3)[C@@H](C)O)(C(=O)N[C@@H](Cc3ccncc3)C(N)=O)CC2)cc1F

molecular target: human kisspeptin receptor (KISS1R) (human), Q969F8; test: radioligand competition, hKISS1R membranes; legend: A is <10 nM
Sequence (Q969F8 whole entry): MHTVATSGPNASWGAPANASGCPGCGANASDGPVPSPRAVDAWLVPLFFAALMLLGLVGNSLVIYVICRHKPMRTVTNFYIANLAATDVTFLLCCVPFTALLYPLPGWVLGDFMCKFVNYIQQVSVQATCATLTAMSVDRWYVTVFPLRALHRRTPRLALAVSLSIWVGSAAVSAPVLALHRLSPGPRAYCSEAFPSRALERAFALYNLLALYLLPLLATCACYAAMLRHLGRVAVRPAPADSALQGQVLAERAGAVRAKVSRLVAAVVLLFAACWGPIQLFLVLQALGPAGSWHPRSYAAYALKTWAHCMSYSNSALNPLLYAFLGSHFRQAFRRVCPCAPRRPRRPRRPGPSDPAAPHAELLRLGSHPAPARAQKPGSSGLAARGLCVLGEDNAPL

Ki, < 10 nM:
B1
B2
B3
B4
B5
B6
B7
B8
B9
B10
B11
B12
B13
B14
B15
B16
B17
B18
B19
B20
B21
B22
B23
B24
B25
